Measurements published in US12060598.

Biological target: T1, octanoyl-ACP (octanoyl-acyl carrier protein, E. coli K12 MG1655 ACP), P0A6A8
T1 chain: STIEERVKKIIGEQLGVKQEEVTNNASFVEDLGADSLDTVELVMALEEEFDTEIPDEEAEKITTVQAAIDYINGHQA

B1: CpFatB1.2-M4 (ΔA54, N28S, I65M) (protein)
chain: MGSSHHHHHHSSENLYFQGGGGYAAHRDYHRVRCAGKRWTMFDRKSKRPSMLMDSFGLERVVQDGLVFRQSFSIRSYEICADRTASMETVMNHVQETSLNQCKSIGLLDDGFGRSPEMCKRDLIWVVTRMKIMVNRYPTWGDTIEVSTWLSQSGKIGMGRDWLISDCNTGEILVRATSVYAMMNQKTRRFSKLPHEVRQEFAPHFLDSPPAIEDNDGKLQKFDVKTGDSIRKGLTPGWYDLDVNQHVSNVKYIGWILESMPTEVLETQELCSLTLEYRRECGRDSVLESVTSMDPSKVGDRFQYRHLLRLEDGADIMKGRTEWRPKNAGTNGAISTGKT
  Km (DTNB thioesterase assay): the Km remained relatively low
  Vmax (DTNB thioesterase assay), fold relative to CpFatB1.2: 15.7 fold increase in Vmax over CpFatB1.2
